The values that follow come from US20260242458A1 (NOVAROCK BIOTHERAPEUTICS, published 2026).

In assay [1] the target is T1, recombinant human IL-25 protein (human, UniProt Q9H293 33-177).
T1 sequence: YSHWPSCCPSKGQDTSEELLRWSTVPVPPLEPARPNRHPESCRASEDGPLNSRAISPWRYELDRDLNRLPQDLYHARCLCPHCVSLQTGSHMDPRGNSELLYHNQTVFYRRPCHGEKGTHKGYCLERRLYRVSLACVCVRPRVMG
Briefly: cell-based or functional assay.

Assay [2] deals with T1, recombinant human IL-25 protein. In words: cell-based or functional assay. This is another data set of the same source.
The target is the same in assay [3]. In words: ELISA, IL-25 coated, goat anti-human kappa light chain-HRP detection. How it is done:
(§1) In this study, the ability of three humanized anti-IL-25 antibodies generated in hIgG1 (IL25Ab6 to Ab8) and hIgG1 YTE formats (IL25Ab9 to Ab11) binding to both human, mouse and cynomolgus IL-25 was evaluated using ELISA. Briefly, recombinant human IL-25 protein (Acro, catalog no: IL5-H4221, lot no: 401-20CNF1-UT), recombinant mouse IL-25 protein (Sino Biological Inc, catalog no: 50138-M07H, lot no: LC15AP0607) or recombinant cynomolgus IL-25 protein (Sino Biological Inc, catalog no: customized order, lot no: MB17MA2715) was directly coated to ELISA plates, respectively. Recombinant antibodies were then added to the plates followed by detection using goat-anti-human Kappa Light Chain antibody HRP (Novus, catalog no: NBP1-75064, Lot no: 68-188-010920). After the addition of ABTS (Moss Inc., catalog no: ABTS-1000, Lot no: 03086202) substrate, ELISA plates were read using an ELISA plate reader (Bioteck).

For assay [4], the target named is T2, recombinant cynomolgus IL-25 protein (cynomolgus monkey, UniProt Q9H293 33-177 (human entry), limits assumed).
T2 construct: Bought (Sino Biological Inc, customized order); also called cyno IL-25
T2 chain: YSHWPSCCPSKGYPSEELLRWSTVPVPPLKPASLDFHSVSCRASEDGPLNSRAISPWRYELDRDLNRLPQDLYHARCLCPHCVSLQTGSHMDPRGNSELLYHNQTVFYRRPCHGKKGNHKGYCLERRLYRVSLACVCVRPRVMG
The assay is described as above. How it is done:
as §1

Assay [5] addresses T3, recombinant mouse IL-25 protein (mouse, UniProt Q8VHH8 17-169).
T3 construct: Bought (Sino Biological Inc, catalog no: 50138-M07H)
T3 sequence: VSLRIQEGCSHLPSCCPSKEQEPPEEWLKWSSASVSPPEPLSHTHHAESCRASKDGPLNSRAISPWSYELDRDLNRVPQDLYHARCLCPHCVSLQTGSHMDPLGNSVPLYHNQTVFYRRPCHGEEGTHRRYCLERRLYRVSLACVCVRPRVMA
The description is as above. The protocol: as §1

Assay [6] deals with T1, recombinant human IL-25 protein. Briefly: cell-based or functional assay. This is another data set of the same source.
For assay [7] the target is unchanged. In words: BLI, Fab; species of IL-25 not stated, taken as human.

B1: IL25Ab7 (antibody, IgG1, V domains shown)
VH: QVQLVQSGAEVKKPGASVKVSCKASGYSFTGYTMNWVRQAPGQGLEWMGLINPDNGGTSYKQKFQGRVTMTVDKSISTAYMELSRLRSDDTAVYYCAREGYYGPSPFHHYAMDYWGQGTLVTVSS
VL: DIQMTQSPSSLSASVGDRVTITCQASQDISNYLNWYQQKPDGTIKLLIYYTSTLHTGVPSRFSGSGSGTDYTFTISSLQPEDIATYYCQQYSKLPYTFGQGTKLEIK
Usually EC50 stands for the concentration needed to bring the measured effect to its halfway point. As to B1, in assay [1], the “IC50, IL-25 induced IL-5 production in human PBMC” value (“IC50 … in human PBMC” for short) was found to be 850 pM. Moreover, the “IC50, IL-25 induced CXCL1 production in HT-29 cells” value (“IC50 … in HT-29 cells” for short) in assay [2] turned out to be 183 pM. Besides, the figures for the EC50 in assay [3], in assay [4] and in assay [5] were 327 pM, 245 pM and 243 pM, respectively. Further, the “IC50, IL-25 induced NF-kB signaling (SEAP) in HEK-Blue IL-17 reporter cells” value (“IC50, IL-25 induced NF-kB signaling” for short) in assay [6] was found to be 42 pM.

B2: IL25Ab7 Fab (Fab, V domains shown)
VH: QVQLVQSGAEVKKPGASVKVSCKASGYSFTGYTMNWVRQAPGQGLEWMGLINPDNGGTSYKQKFQGRVTMTVDKSISTAYMELSRLRSDDTAVYYCAREGYYGPSPFHHYAMDYWGQGTLVTVSS
VL: DIQMTQSPSSLSASVGDRVTITCQASQDISNYLNWYQQKPDGTIKLLIYYTSTLHTGVPSRFSGSGSGTDYTFTISSLQPEDIATYYCQQYSKLPYTFGQGTKLEIK
notes: VH/VL assigned as for IL25Ab7
Broadly, the Kd is the concentration at which binding is half-saturated. A word on the koff: it is a measure of how fast the partners let go of each other. Usually kon stands for a measure of how fast the partners come together. Regarding B2, in assay [7], the Kd is 1800 pM, the koff was determined as 0.00029 s⁻¹ and the kon amounted to 161000 M⁻¹ s⁻¹.

B3: IL25Ab10 (antibody, V domains shown)
VH: QVQLVQSGAEVKKPGASVKVSCKASGYSFTGYTMNWVRQAPGQGLEWMGLINPDNGGTSYKQKFQGRVTMTVDKSISTAYMELSRLRSDDTAVYYCAREGYYGPSPFHHYAMDYWGQGTLVTVSS
VL: DIQMTQSPSSLSASVGDRVTITCQASQDISNYLNWYQQKPDGTIKLLIYYTSTLHTGVPSRFSGSGSGTDYTFTISSLQPEDIATYYCQQYSKLPYTFGQGTKLEIK
With B3, the “IC50 … in human PBMC” value in assay [1] amounted to 1430 pM. The “IC50 … in HT-29 cells” value in assay [2] turned out to be 198 pM. The concentration giving a half-maximal response (EC50) in assay [3] was found to be 364 pM; in assay [4], 266 pM; in assay [5], 284 pM. The “IC50, IL-25 induced NF-kB signaling” value in assay [6] was determined as 52 pM.

B4: IL25Ab6 Fab (Fab, V domains shown)
VH: QVQLVQSGAEVKKPGASVKVSCKASGYSFTGYTMNWVRQAPGQGLEWMGLINPDNGGTSYKQKFQGRVTMTVDKSISTAYMELSRLRSDDTAVYYCAREGYYGPSPFHHYAMDYWGQGTLVTVSS
VL: DIQMTQSPSSLSASVGDRVTITCQASQDISNYLNWYQQKPGKAPKLLIYYTSTLHTGVPSRFSGSGSGTDYTFTISSLQPEDIATYYCQQYSKLPYTFGQGTKLEIK
For B4, in assay [7], the equilibrium dissociation constant (Kd) came to 1860 pM, the koff stood at 0.000249 s⁻¹ and the kon was 134000 M⁻¹ s⁻¹.

B5: IL25Ab6 (antibody, V domains shown)
VH: QVQLVQSGAEVKKPGASVKVSCKASGYSFTGYTMNWVRQAPGQGLEWMGLINPDNGGTSYKQKFQGRVTMTVDKSISTAYMELSRLRSDDTAVYYCAREGYYGPSPFHHYAMDYWGQGTLVTVSS
VL: DIQMTQSPSSLSASVGDRVTITCQASQDISNYLNWYQQKPGKAPKLLIYYTSTLHTGVPSRFSGSGSGTDYTFTISSLQPEDIATYYCQQYSKLPYTFGQGTKLEIK
As for B5, the “IC50 … in human PBMC” value in assay [1] was 381 pM. The “IC50 … in HT-29 cells” value in assay [2] turned out to be 225 pM. For the same molecule, the EC50 in assay [3] turned out to be 302 pM; in assay [4] it was 241 pM; in assay [5], 242 pM. In addition, in assay [6], the “IC50, IL-25 induced NF-kB signaling” value came to 48 pM.

B6: IL25Ab8 Fab (Fab, V domains shown)
VH: QVQLVQSGAEVKKPGASVKVSCKASGYSFTGYTMNWVRQAHGKNLEWMGLINPDNGGTSHKQKFQGRVTMTVDKSISTAYMELSRLRSDDTAVYYCAREGYYGPSPFHHYAMDYWGQGTLVTVSS
VL: DIQMTQSPSSLSASVGDRVTITCQASQDISNYLNWYQQKPDGTIKLLIYYTSTLHTGVPSRFSGSGSGTDYTLTISSLQPEDIATYYCQQYSKLPYTFGGGTKLEIK
notes: VH/VL assigned as for IL25Ab8
Take B6: in assay [7], the Kd stood at 1780 pM, the koff came to 0.000251 s⁻¹ and the kon was 141000 M⁻¹ s⁻¹.

B7: IL25Ab8 (antibody, IgG1, V domains shown)
VH: QVQLVQSGAEVKKPGASVKVSCKASGYSFTGYTMNWVRQAHGKNLEWMGLINPDNGGTSHKQKFQGRVTMTVDKSISTAYMELSRLRSDDTAVYYCAREGYYGPSPFHHYAMDYWGQGTLVTVSS
VL: DIQMTQSPSSLSASVGDRVTITCQASQDISNYLNWYQQKPDGTIKLLIYYTSTLHTGVPSRFSGSGSGTDYTLTISSLQPEDIATYYCQQYSKLPYTFGGGTKLEIK
In the case of B7, the “IC50 … in human PBMC” value in assay [1] turned out to be 1040 pM. For the same molecule, in assay [2], the “IC50 … in HT-29 cells” value came to 199 pM. Moreover, the EC50 in assay [3] is 404 pM; in assay [4], 295 pM; in assay [5], 332 pM. Further, in assay [6], the “IC50, IL-25 induced NF-kB signaling” value came to 41 pM.

B8: IL25Ab11 (antibody, IgG1, V domains shown)
VH: QVQLVQSGAEVKKPGASVKVSCKASGYSFTGYTMNWVRQAHGKNLEWMGLINPDNGGTSHKQKFQGRVTMTVDKSISTAYMELSRLRSDDTAVYYCAREGYYGPSPFHHYAMDYWGQGTLVTVSS
VL: DIQMTQSPSSLSASVGDRVTITCQASQDISNYLNWYQQKPDGTIKLLIYYTSTLHTGVPSRFSGSGSGTDYTLTISSLQPEDIATYYCQQYSKLPYTFGGGTKLEIK
As for B8, the “IC50 … in human PBMC” value in assay [1] is 953 pM. In assay [2], the “IC50 … in HT-29 cells” value turned out to be 187 pM. Further, the EC50 in assay [3] turned out to be 318 pM; in assay [4] it was 239 pM; in assay [5] it was 258 pM. Further, the “IC50, IL-25 induced NF-kB signaling” value in assay [6] was 37 pM.

B9: IL25Ab9 (antibody, V domains shown)
VH: QVQLVQSGAEVKKPGASVKVSCKASGYSFTGYTMNWVRQAPGQGLEWMGLINPDNGGTSYKQKFQGRVTMTVDKSISTAYMELSRLRSDDTAVYYCAREGYYGPSPFHHYAMDYWGQGTLVTVSS
VL: DIQMTQSPSSLSASVGDRVTITCQASQDISNYLNWYQQKPGKAPKLLIYYTSTLHTGVPSRFSGSGSGTDYTFTISSLQPEDIATYYCQQYSKLPYTFGQGTKLEIK
Regarding B9, in assay [1], the “IC50 … in human PBMC” value was found to be 435 pM. The “IC50 … in HT-29 cells” value in assay [2] amounted to 225 pM. The EC50 stood at 312 pM in assay [3], 222 pM in assay [4] and 232 pM in assay [5]. In addition, the “IC50, IL-25 induced NF-kB signaling” value in assay [6] turned out to be 43 pM.

B10: IL25Ab3 Fab (Fab, V domains shown)
VH: EVQLQQSGPELVKPGGSVRISCKASGYSFTGYTMNWVKQSHGKNLEWIGLINPDNGGTSHKQRFMGKATLTVDKSSSTAYMELLSLTSEDSAVYYCAREGYYGPSPFHHYAMDYWGQGTSVTVSS
VL: DIQMTQTTSSLSASLGDRVTISCSASQDISNYLNWYQQKPDGTIKLLIYYTSTLHSGVPSRFSGSGSGTDYSLTISNLEPEDIATYYCQQYSKLPYTFGGGTKLEIK
notes: VH/VL assigned as for IL25Ab3; also called murine parental Fab
With B10, in assay [7], the Kd came to 1890 pM, the koff was found to be 0.000285 s⁻¹ and the kon is 150000 M⁻¹ s⁻¹.
